This is an account of results in paper PMC2925389, “Pre-Steady-State Kinetic Analysis of Truncated and Full-Length Saccharomyces cerevisiae DNA Polymerase Eta” (Journal of Nucleic Acids, 2010).

Series [1] deals with T1, yPolη full-length (Saccharomyces cerevisiae) (UniProt Q04049).
T1 sequence: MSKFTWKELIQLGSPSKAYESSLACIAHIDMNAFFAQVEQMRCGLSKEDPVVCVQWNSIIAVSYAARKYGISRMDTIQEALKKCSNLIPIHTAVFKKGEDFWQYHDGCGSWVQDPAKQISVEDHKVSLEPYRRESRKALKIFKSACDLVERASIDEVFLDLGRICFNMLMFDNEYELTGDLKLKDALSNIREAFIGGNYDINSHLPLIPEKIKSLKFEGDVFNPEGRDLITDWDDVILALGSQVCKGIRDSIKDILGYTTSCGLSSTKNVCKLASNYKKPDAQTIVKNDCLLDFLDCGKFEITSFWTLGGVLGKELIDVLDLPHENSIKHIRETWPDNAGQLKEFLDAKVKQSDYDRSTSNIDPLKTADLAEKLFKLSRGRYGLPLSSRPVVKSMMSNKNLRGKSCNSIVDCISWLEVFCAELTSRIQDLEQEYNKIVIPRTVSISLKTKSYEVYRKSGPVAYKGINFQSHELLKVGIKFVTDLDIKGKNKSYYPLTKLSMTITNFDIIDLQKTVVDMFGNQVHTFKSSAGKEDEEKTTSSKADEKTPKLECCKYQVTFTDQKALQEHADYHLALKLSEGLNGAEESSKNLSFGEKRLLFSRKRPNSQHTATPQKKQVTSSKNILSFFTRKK
Kind of series: fluorescence titration (2-aminopurine). The following applies: 2-aminopurine at position 19 of the 41-mer template (X, written as A); 23°C, buffer A (composition not in material; without BSA for fluorescence); EMSA 10 nM DNA, 10-450 nM protein, 20 min, 4.5% native gel, 40 mM Tris in running ….

The target of series [2] is T2, yPolη truncated (catalytic core) (Saccharomyces cerevisiae) (UniProt Q04049).
T2 sequence: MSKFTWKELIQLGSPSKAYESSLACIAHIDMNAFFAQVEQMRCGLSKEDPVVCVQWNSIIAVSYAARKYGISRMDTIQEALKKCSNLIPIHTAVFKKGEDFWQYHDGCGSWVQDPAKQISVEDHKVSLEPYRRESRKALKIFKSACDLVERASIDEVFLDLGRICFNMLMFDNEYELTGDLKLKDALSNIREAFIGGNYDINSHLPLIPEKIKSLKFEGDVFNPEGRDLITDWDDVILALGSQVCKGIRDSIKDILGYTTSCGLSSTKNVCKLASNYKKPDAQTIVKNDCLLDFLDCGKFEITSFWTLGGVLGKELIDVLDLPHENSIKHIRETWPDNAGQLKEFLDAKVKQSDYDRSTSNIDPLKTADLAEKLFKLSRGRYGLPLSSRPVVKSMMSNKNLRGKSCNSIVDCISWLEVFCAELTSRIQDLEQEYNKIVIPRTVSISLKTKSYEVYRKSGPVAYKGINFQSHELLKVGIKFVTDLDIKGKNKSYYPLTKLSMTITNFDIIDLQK
Put plainly: fluorescence titration (2-aminopurine). The following applies: 2-aminopurine at position 19 of the 41-mer template (X, written as A); 23°C, buffer A (composition not in material; without BSA for fluorescence); EMSA 10 nM DNA, 10-450 nM protein, 20 min, 4.5% native gel, 40 mM Tris in running ….

As usually defined, the Kd is the free concentration of one partner at which half of the binding sites on the other are occupied at equilibrium, for simple one-to-one binding. A low value points to tighter binding. On to “CGCAGCCGTCCAACCAACTCA / GGACGGCATTGGATCGACACTGAGTTGGTTGGACGGCTGCG [F-8 21/41-mer]”, for which the equilibrium dissociation constant (Kd) in series [1] stood at 0.007 µM; in series [2], 0.013 µM.
